From US20210253679A1 (NATIONAL RESEARCH COUNCIL OF CANADA, published 2021)

Experiments:
rhesus serum albumin [1] = biological target: T1, rhesus serum albumin (rhesus, UniProt Q28522 17-600); test: SPR, single cycle kinetics, pH 7.4
T1 construct: also called RhSA

mouse serum albumin = biological target: T2, mouse serum albumin (mouse, UniProt P07724 25-608); test: SPR, single cycle kinetics, pH 7.4
T2 construct: also called MSA

human serum albumin [2] = biological target: T3, human serum albumin (human, UniProt P02768 25-609); test: SPR, single cycle kinetics, pH 7.4
T3 construct: also called HSA

rat serum albumin [3] = biological target: T4, rat serum albumin (rat, UniProt P02770 25-608); test: SPR, single cycle kinetics, pH 7.4
T4 construct: also called RSA

human serum albumin [4] = biological target: T3, human serum albumin; test: SPR, single cycle kinetics, pH 5.5
human serum albumin [5] = biological target: T3, human serum albumin; test: SPR, single cycle kinetics, pH 5.5; remark: listed apart in the source
HSA domain 2 (DII) = biological target: T5, HSA domain 2 (DII) (human, UniProt P02768 213-409); test: SPR, 100 nM VHH over an amine-coupled DII surface
T5 construct: domain: DII

human serum albumin [6] = biological target: T3, human serum albumin; test: SPR, single cycle kinetics, pH 7.4; remark: listed apart in the source
rhesus serum albumin [7] = biological target: T1, rhesus serum albumin; test: SPR, pH 7.4; complex binding, data not analyzable
human serum albumin [8] = biological target: T3, human serum albumin; test: SPR, pH 7.4; complex binding, data not analyzable
rat serum albumin [9] = biological target: T4, rat serum albumin; test: SPR, pH 7.4; complex binding, data not analyzable

T2 sequence (P07724 25-608 limits assumed): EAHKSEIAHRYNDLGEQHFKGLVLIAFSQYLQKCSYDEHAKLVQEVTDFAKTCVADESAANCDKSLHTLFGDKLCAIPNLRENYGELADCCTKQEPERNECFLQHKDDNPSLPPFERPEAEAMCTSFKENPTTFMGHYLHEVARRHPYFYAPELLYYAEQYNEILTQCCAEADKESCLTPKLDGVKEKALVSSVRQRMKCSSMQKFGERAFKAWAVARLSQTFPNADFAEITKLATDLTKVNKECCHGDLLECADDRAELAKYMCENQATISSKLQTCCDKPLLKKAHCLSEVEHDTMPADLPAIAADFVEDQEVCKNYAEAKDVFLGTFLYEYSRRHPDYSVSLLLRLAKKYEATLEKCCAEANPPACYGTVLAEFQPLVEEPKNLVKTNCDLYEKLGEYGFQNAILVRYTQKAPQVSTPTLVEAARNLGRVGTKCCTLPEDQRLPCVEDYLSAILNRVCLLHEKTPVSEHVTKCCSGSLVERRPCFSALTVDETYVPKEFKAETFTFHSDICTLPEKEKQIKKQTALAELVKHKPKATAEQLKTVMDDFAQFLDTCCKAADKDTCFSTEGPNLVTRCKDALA

Row | Binder | Kd (rhesus serum albumin [1]) [nM] | Kd (mouse serum albumin) [nM] | Kd (human serum albumin [2]) [nM] | Kd (rat serum albumin [3]) [nM] | Kd (human serum albumin [4]) [nM] | Kd (human serum albumin [5]) [nM] | binding result (HSA domain 2 (DII)) | Kd (human serum albumin [6]) [nM] | binding result (rhesus serum albumin [7]) | binding result (human serum albumin [8]) | binding result (rat serum albumin [9])
1 | M75 sdAb (VHH, also called M75 VHH) VHH: QVQLVESGGGFVQAGGSLRLSCAASGRTFDNYVMAWFRQAPGKEREFVASISGSGSITNYANSVKDRFTISRDSAKNAIYLQMNSLKPEDTALYYCAAGSRRTYYREPKFYPSWGQGTQVTVSS | 2.9 | 510 | 1.2 | 315 | 735 | 735 | no binding (tested: 100 nM) | 1.2 |  |  | 
2 | R11-H4 (VHH) VHH: QVQLVESGGGLVQPGGSLRLSCAASGFLLRSNTMGWYRQAPGKERELVAFIRPSGLTNYNDAVQGRFTISRDNSKNTLYLQMNSLRAEDTAVYYCHTRPPFQRDSWGQGTLVTVSS |  |  |  |  |  |  |  |  | binds | binds | binds
3 | R11-H3 (VHH) VHH: EVQLVESGGGLVQPGGSLRLSCAASGFLLRSNTMGWYRQAPGKERELVSFIRPSGLTNYNDAVQGRFTISRDNSKNTLYLQMNSLRAEDTAVYYCHTRPPFQRDSWGQGTLVTVSS |  |  |  |  |  |  |  |  |  | binds | binds
